Assay [1] concerns the target T1, full-length human DLL4 expressed on the surface of CHO cells (human, UniProt Q9NR61 26-685).
T1 construct: also called CHO-DLL4; DLL4-expressing CHO cells
Put plainly: flow cytometry; 250 nM biotinylated Notch-Fc on CHO-DLL4 cells, streptavidin-PE; no-Fab baseline of the blocking series. A general note: A flow cytometer gives signals particle by particle.

The target in assay [2] is T2, rHuman EGF R/Fc Chimera, CF (R&D Systems Cat#344-ER) (human, UniProt P00533 25-645).
T2 construct: Bought recombinant protein; also called epidermal growth factor receptor; Fc part of the bought chimera not given
Put plainly: MSD multispot ECL, antigen spotted on plate; Fab 1.19 uM; blank spot 24999.

Assay [3] deals with T3, rHuman Erythropoietin R/Fc Chimera, CF (R&D Systems Cat#963-ER) (human, UniProt P19235 25-250).
T3 construct: Bought recombinant protein; also called EPO R/Fc; Epo R; Fc part of the bought chimera not given
T3 sequence (looked up): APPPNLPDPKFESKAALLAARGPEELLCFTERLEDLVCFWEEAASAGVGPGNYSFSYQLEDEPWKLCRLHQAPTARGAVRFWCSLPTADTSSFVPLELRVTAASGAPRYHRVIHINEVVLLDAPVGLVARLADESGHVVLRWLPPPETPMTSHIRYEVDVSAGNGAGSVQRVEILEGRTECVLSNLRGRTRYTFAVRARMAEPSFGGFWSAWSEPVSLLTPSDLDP
Described as above.

Assay [4] deals with T4, Recombinant Human DLL4 (R&D Systems Cat#1506-D4/CF) (human, UniProt Q9NR61 27-524).
T4 construct: Bought recombinant protein; also called delta-like protein 4; rHuman DLL4
Described as above.

Assay [5] deals with T5, rHuman P-Cadherin/Fc Chimera, CF (R&D Systems Cat#861-PC) (human, UniProt P22223 108-654).
T5 construct: Bought recombinant protein; Fc part of the bought chimera not given
The assay is described as above.

Assay [6] concerns the target T6, rHuman Notch-1/Fc Chimera, CF (R&D Systems Cat#3647-TK) (human, UniProt P46531 19-526).
T6 construct: Bought recombinant protein; Fc part of the bought chimera not given
The description is as above.

The target in assay [7] is T2, rHuman EGF R/Fc Chimera, CF (R&D …). Put plainly: MSD multispot ECL, antigen spotted on plate; Fab 0.01859 uM; blank spot 1776.
In assay [8] the target is T3, rHuman Erythropoietin R/Fc Chimera, CF …. The assay is described as above.
Assay [9] deals with T4, Recombinant Human DLL4 (R&D Systems …). The assay is described as above.
Assay [10] deals with T5, rHuman P-Cadherin/Fc Chimera, CF (R&D …). The assay is described as above.
The target in assay [11] is T6, rHuman Notch-1/Fc Chimera, CF (R&D …). The description is as above.
Assay [12] addresses T2, rHuman EGF R/Fc Chimera, CF (R&D …). The experiment in a line: MSD multispot ECL, antigen spotted on plate; Fab 0.07438 uM; blank spot 2504.
For assay [13], the target named is T3, rHuman Erythropoietin R/Fc Chimera, CF …. Described as above.
Assay [14] has as its target T4, Recombinant Human DLL4 (R&D Systems …). The description is as above.
In assay [15] the target is T5, rHuman P-Cadherin/Fc Chimera, CF (R&D …). Described as above.
The target of assay [16] is T6, rHuman Notch-1/Fc Chimera, CF (R&D …). Described as above.
Assay [17] addresses T2, rHuman EGF R/Fc Chimera, CF (R&D …). Put plainly: MSD multispot ECL, antigen spotted on plate; Fab 0.2975 uM; blank spot 5019.
Assay [18] concerns the target T3, rHuman Erythropoietin R/Fc Chimera, CF …. The assay is described as above.
Assay [19] addresses T4, Recombinant Human DLL4 (R&D Systems …). Described as above.
In assay [20] the target is T5, rHuman P-Cadherin/Fc Chimera, CF (R&D …). The description is as above.
In assay [21] the target is T6, rHuman Notch-1/Fc Chimera, CF (R&D …). The assay is described as above.
The target of assay [22] is T7, rHuman IGF-1 sR, (IGF-1 sR), CF (R&D Systems Cat#391-GR) (human, UniProt P08069 31-932).
T7 construct: Bought recombinant soluble receptor; also called insulin-like growth factor-1 soluble receptor
The experiment in a line: Multispot ECL (MSD) assay, antigen spotted on plate, Fab at 0.0192 µM; blank spot 751.

Assay [23] has as its target T7, rHuman IGF-1 sR, (IGF-1 sR), CF (R&D …). The experiment in a line: Multispot ECL (MSD) assay, antigen spotted on plate, Fab at 0.48 µM; blank spot 2945.
For assay [24] the target is unchanged. Put plainly: Multispot ECL (MSD) assay, antigen spotted on plate, Fab at 0.096 µM; blank spot 917.

B1: rHuman Notch-1/Fc Chimera (Fc fusion)
chain: ARGPRCSQPGETCLNGGKCEAANGTEACVCGGAFVGPRCQDPNPCLSTPCKNAGTCHVVDRRGVADYACSCALGFSGPLCLTPLDNACLTNPCRNGGTCDLLTLTEYKCRCPPGWSGKSCQQADPCASNPCANGGQCLPFEASYICHCPPSFHGPTCRQDVNECGQKPGLCRHGGTCHNEVGSYRCVCRATHTGPNCERPYVPCSPSPCQNGGTCRPTGDVTHECACLPGFTGQNCEENIDDCPGNNCKNGGACVDGVNTYNCRCPPEWTGQYCTEDVDECQLMPNACQNGGTCHNTHGGYNCVCVNGWTGEDCSENIDDCASAACFHGATCHDRVASFYCECPHGRTGLLCHLNDACISNPCNEGSNCDTNPVNGKAICTCPSGYTGPACSQDVDECSLGANPCEHAGKCINTLGSFECQCLQGYTGPRCEIDVNECVSNPCQNDATCLDQIGEFQCICMPGYEGVHCEVNTDECASSPCLHNGRCLDKINEFQCECPTGFTGHLCQ
notes: Bought from R&D Systems (Cat#3647-TK); also called Notch-Fc; Notch-FC; Fc part of the bought chimera not given
Consider B1, for which the “signal of biotinylated Notch-Fc bound to CHO-DLL4 cells without Fab (read-out not given)” value in [1] was 531.

B2: Fab VH1-46_IGHD6-13*01_IGHJ4*01 & L2_IGKJ1*01 (Fab, V domains shown)
VH: QVQLVQSGAEVKKPGASVKVSCKASGYTFTSYYMHWVRQAPGQGLEWMGIINPSGGSTSYAQKFQGRVTMTRDTSTSTVYMELSSLRSEDTAVYYCAREGYSSSWYDYFDYWGQGTLVTVSS
VL: not shown
notes: Germline library Fab expressed in E. coli; VH was cloned into Plasmid A, which adds CH1 with His6 and Flag tags
On to B2, for which the ECL signal in [2] is 62500; in [3], 193000; in [4], 74900; in assay [5], 69700; in [6] it was 72000; in assay [7], 11800. Further, the ECL signal was 188000 in [8]; 18900 in assay [9]; 11700 in [10]; 17600 in assay [11]; 16600 in assay [12]; 154000 in assay [13]. The ECL signal in assay [14] was found to be 20700; in assay [15], 14800; in [16], 22000; in assay [17], 42200; in [18], 167000; in assay [19], 34700. Moreover, the ECL signal in assay [20] was determined as 26000; in [21] it was 37500.

B3: Fab VH1-46_IGHD6-13*01_IGHJ4*01 & A27_IGKJ1*01 (Fab, V domains shown)
VH: QVQLVQSGAEVKKPGASVKVSCKASGYTFTSYYMHWVRQAPGQGLEWMGIINPSGGSTSYAQKFQGRVTMTRDTSTSTVYMELSSLRSEDTAVYYCAREGYSSSWYDYFDYWGQGTLVTVSS
VL: not shown
notes: Germline Fab made in E. coli; VH was cloned in Plasmid A (CH1 constant region, His6 and Flag tags) and the kappa VL in Plasmid C (kappa CL); Only the variable domains are tied to this Fab by name
With B3, the ECL signal was 1830 in assay [22], 8930 in assay [23] and 2450 in [24].

The values are drawn from patent US20120316071A1 (published 2012).
